Biological target: T1, PD-L1-Fc (UniProt Q9NZQ7 19-238, limits assumed)
T1 construct: extracellular domain; not shown: Fc fragment of human IgG
Assay: SPR (Biacore), antibody captured by anti-human Fab on CM5 chip, PD-L1-Fc as analyte, 1:1 binding fit

T1 sequence (Q9NZQ7 19-238 limits assumed): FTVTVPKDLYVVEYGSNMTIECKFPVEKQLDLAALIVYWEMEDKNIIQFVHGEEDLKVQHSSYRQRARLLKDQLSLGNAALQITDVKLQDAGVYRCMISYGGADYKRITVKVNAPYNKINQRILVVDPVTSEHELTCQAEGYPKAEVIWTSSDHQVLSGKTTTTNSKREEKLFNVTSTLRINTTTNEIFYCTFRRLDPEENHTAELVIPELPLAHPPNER

B1: Mil85-6抗体 (antibody, V domains shown)
VH: EVQLVESGGGLVQPGGSLRLSCAASGFTFADSWIHWVRQAPGKGLEWVAWISPFGGSNYYADSVKGRFTISADTSKNTAYLQMNSLRAEDTAVYYCARRHWPGGFDYWGQGTLVTVSS
VL: DIQMTQSPSSLSASVGDRVTITCRASQSIGTALNWYQQKPGKAPKLLIYTASSLQSGVPSRFSGSGSGTDFTLTISSLQPEDFATYYCQQDNYTPMTFGQGTKVEIK
notes: also called Mil85-6-5C6; 全抗体
B1 showed a Kd of 0.429 nM, a koff of 0.000195 s⁻¹ and a kon of 457000 M⁻¹ s⁻¹.
